Publication PMC8770954

target: Rh7B2 IgG1 (rhesusized variant of human 7B2) (rhesus macaque (Macaca mulatta)); assay: SPR; imaging SPR (IBIS MX96); IgG immobilised on a carboxymethyldextran sensor (CMD200M) by carbodiimide chemistry with a Continuous Flow Microspotter, printed at 300 and 150 nM; soluble receptor as analyte from 20 uM, 1:3 over 8 points; 5 min association and 5 min dissociation; equilibrium KD (Scrubber 2)
Sequence (heavy, as listed by the source, chain 1 of 2): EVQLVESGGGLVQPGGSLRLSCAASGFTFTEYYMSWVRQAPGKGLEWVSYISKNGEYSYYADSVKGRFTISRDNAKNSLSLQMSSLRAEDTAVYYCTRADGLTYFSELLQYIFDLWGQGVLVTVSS
Sequence (light, as listed by the source, chain 2 of 2): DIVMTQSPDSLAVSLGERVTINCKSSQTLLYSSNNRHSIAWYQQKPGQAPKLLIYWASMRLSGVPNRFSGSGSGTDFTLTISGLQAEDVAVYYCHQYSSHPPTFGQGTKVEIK

Sequence of human FcγRIIIa (F158) (P08637 17-208): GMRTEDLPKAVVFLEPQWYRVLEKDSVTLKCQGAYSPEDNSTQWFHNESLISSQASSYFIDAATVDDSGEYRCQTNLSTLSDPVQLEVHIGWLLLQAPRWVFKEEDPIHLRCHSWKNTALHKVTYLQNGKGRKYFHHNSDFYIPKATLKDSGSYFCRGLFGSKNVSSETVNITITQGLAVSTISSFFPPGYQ

Q: How did the Kd turn out when “human FcγRIIIa (F158) (from UniProt P08637 17-208) (receptor)” was run?
A: Its Kd is 3.8 µM.

Q: With “human FcγRIIa (H131) (from UniProt P12318 34-217) (receptor)” as the substance, how does the Kd read?
A: Its Kd is 4.4 µM.

Q: How did the Kd turn out when “human FcγRIIb (from UniProt P31994 43-217) (receptor)” was run?
A: Its Kd is 8.5 µM.

Q: How did the Kd turn out when rhesus macaque FcγRIIa-1 (receptor) was run?
A: The Kd was 6 µM.

Q: With rhesus macaque FcγRIIa-2 (receptor) as the substance, how does the Kd read?
A: Its Kd is 5.5 µM.

Q: How did the Kd turn out when rhesus macaque FcγRIIa-4 (receptor) was run?
A: The Kd was 7.7 µM.

Q: For rhesus macaque FcγRIIb-1 (receptor), which Kd is on record?
A: The Kd was 3.7 µM.

target: RhDH677.3 IgG1 (rhesusized variant of human DH677.3) (rhesus macaque (Macaca mulatta)); assay: as above
Sequence (heavy, as listed by the source, chain 1 of 2): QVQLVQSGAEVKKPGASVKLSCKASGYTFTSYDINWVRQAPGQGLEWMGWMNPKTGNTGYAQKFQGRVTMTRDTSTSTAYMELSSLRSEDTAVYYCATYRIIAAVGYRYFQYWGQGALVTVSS
Sequence (light, as listed by the source, chain 2 of 2): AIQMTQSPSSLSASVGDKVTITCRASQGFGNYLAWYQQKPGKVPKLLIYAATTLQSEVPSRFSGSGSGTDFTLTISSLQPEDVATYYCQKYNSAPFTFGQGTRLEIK

Q: How did the Kd turn out when “human FcγRIIIa (F158) (from UniProt P08637 17-208) (receptor)” was run?
A: The Kd was 3.8 µM.

Q: How did the Kd turn out when “human FcγRIIb (from UniProt P31994 43-217) (receptor)” was run?
A: Its Kd is 7.9 µM.

Q: rhesus macaque FcγRIIa-1 (receptor) was tested. Which Kd did it give?
A: Its Kd is 4.7 µM.

Q: Which Kd does the source give for rhesus macaque FcγRIIa-2 (receptor) here?
A: Its Kd is 4.9 µM.

Q: Which Kd does the source give for rhesus macaque FcγRIIa-4 (receptor) here?
A: Its Kd is 6.2 µM.

Q: For rhesus macaque FcγRIIb-1 (receptor), which Kd is on record?
A: Its Kd is 3.7 µM.

target: RhDH827 IgG1 (rhesusized variant of human DH827) (rhesus macaque (Macaca mulatta)); assay: as above
Sequence (heavy, as listed by the source, chain 1 of 2): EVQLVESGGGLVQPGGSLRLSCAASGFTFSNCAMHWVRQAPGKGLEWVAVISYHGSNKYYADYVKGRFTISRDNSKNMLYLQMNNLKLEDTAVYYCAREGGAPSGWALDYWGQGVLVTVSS
Sequence (light, as listed by the source, chain 2 of 2): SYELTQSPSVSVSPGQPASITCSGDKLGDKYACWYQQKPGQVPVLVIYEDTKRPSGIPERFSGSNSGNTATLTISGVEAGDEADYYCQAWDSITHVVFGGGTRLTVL

Q: With “human FcγRIIIa (F158) (from UniProt P08637 17-208) (receptor)” as the substance, how does the Kd read?
A: The Kd was 4.1 µM.

Q: Which Kd does the source give for “human FcγRIIa (H131) (from UniProt P12318 34-217) (receptor)” here?
A: Its Kd is 3.7 µM.

Q: How did the Kd turn out when rhesus macaque FcγRIIa-1 (receptor) was run?
A: Its Kd is 5.7 µM.

Q: Which Kd does the source give for rhesus macaque FcγRIIa-2 (receptor) here?
A: Its Kd is 5.5 µM.

Q: How did the Kd turn out when rhesus macaque FcγRIIa-4 (receptor) was run?
A: The Kd was 6.9 µM.

Q: For rhesus macaque FcγRIIb-1 (receptor), which Kd is on record?
A: The Kd was 3.7 µM.
